In patent US20150344570A1 (published 2015):

T1: FcγRIIb extracellular domain with C-terminal His tag (human, UniProt P31994 43-217)
T1 construct: extracellular domain; also called FcgRIIb; 2b
T1 sequence (looked up): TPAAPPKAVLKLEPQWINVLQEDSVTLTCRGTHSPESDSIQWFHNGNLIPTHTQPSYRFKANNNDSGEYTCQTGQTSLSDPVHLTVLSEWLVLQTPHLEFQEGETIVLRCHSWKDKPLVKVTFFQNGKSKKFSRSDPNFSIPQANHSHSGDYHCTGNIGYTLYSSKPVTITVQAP

B1: GpH7-B3 variant N325_08L/GpL16-k0 (antibody, human IgG1, kappa)
heavy: not shown
light: DIVMTQSPLSLPVTPGEPASISCQASESLVHSNRNTYLHWYLQKPGQSPQLLIYKVSNRFSGVPDRFSGSGSGTDFTLKISRVEAEDVGVYYCSQNTHVPPTFGQGTKVEIERTVAAPSVFIFPPSDEQLKSGTASVVCLLNNFYPREAKVQWKVDNALQSGNSQESVTEQDSKDSTYSLSSTLTLSKADYEKHKVYACEVTHQGLSSPVTKSFNRGEC
notes: also called Ho Ab N325_08L
B2: GpH7-A5/GpH7-B3 variant A327_18N/GpL16-k0 (antibody, human IgG1, kappa)
heavy 1: not shown
heavy 2: not shown
light: B1 light
notes: also called He Ab A327_18N
B3: GpH7-B3 variant T335_18N/GpL16-k0 (antibody, human IgG1, kappa)
heavy: not shown
light: B1 light
notes: also called Ho Ab T335_18N
B4: GpH7-B3 variant P238_20W/GpL16-k0 (antibody, human IgG1, kappa)
heavy: not shown
light: B1 light
notes: also called Ho Ab P238_20W
B5: GpH7-B3 variant P271_09D/GpL16-k0 (antibody, human IgG1, kappa)
heavy: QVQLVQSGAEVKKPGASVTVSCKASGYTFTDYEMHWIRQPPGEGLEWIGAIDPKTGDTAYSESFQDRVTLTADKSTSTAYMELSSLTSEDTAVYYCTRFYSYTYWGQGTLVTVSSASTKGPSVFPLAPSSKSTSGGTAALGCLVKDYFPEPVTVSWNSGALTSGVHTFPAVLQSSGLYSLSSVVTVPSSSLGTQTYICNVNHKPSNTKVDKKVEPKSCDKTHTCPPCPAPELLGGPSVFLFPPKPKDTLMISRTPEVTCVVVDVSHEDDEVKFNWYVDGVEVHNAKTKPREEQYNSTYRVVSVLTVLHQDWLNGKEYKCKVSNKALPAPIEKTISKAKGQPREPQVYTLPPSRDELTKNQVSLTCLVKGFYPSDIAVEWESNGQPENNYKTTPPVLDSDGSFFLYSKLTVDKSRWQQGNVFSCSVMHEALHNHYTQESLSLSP
light: B1 light
notes: also called Ho Ab P271_09D
B6: GpH7-A5/GpH7-B3 variant A327_07I/GpL16-k0 (antibody, human IgG1, kappa)
heavy 1: not shown
heavy 2: not shown
light: B1 light
notes: also called He Ab A327_07I
B7: GpH7-B3 variant P238_03V/GpL16-k0 (antibody, human IgG1, kappa)
heavy: not shown
light: B1 light
notes: also called Ho Ab P238_03V
B8: GpH7-B3 variant S337_18N/GpL16-k0 (antibody, human IgG1, kappa)
heavy: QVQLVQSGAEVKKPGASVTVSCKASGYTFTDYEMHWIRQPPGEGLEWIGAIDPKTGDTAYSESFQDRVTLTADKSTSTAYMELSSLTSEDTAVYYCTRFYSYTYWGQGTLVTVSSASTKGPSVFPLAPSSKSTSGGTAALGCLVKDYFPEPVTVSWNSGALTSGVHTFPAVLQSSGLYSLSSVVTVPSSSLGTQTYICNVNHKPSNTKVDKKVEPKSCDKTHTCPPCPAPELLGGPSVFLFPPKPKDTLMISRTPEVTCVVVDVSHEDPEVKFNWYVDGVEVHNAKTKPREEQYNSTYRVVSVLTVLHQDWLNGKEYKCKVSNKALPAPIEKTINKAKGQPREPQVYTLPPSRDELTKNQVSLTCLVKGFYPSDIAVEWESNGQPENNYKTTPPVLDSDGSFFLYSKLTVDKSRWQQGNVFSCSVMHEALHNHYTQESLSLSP
light: B1 light
notes: also called Ho Ab S337_18N
B9: GpH7-A5/GpH7-B3 variant A330_05P/GpL16-k0 (antibody, human IgG1, kappa)
heavy 1: not shown
heavy 2: not shown
light: B1 light
notes: also called He Ab A330_05P
B10: GpH7-B3 variant P238_16H/GpL16-k0 (antibody, human IgG1, kappa)
heavy: not shown
light: B1 light
notes: also called Ho Ab P238_16H
B11: GpH7-B3 variant T335_10E/GpL16-k0 (antibody, human IgG1, kappa)
heavy: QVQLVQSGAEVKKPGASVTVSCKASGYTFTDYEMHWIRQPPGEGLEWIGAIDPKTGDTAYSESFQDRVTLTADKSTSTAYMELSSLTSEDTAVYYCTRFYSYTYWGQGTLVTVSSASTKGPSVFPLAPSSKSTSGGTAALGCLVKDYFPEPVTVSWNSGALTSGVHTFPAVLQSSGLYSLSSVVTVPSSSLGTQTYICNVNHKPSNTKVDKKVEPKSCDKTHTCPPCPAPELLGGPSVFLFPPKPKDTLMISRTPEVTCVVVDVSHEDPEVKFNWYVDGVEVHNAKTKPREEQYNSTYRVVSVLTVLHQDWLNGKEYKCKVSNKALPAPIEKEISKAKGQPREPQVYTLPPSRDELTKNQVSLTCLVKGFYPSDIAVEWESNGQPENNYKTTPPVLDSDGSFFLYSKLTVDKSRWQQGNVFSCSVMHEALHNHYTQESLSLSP
light: B1 light
notes: also called Ho Ab T335_10E
B12: GpH7-B3 variant S337_07I/GpL16-k0 (antibody, human IgG1, kappa)
heavy: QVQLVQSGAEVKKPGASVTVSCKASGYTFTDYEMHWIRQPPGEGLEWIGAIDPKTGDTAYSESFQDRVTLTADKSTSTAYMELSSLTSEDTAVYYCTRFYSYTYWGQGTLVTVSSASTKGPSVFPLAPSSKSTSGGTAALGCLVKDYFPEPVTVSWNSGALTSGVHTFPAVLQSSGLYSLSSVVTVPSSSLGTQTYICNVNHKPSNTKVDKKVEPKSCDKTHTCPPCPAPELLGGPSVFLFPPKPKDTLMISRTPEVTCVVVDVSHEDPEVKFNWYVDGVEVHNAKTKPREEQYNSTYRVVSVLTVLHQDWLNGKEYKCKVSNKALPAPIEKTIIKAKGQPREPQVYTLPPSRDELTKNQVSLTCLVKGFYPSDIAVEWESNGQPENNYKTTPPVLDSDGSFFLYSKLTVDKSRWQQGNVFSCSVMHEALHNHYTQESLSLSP
light: B1 light
notes: also called Ho Ab S337_07I
B13: GpH7-B3 variant S337_08L/GpL16-k0 (antibody, human IgG1, kappa)
heavy: not shown
light: B1 light
notes: also called Ho Ab S337_08L
B14: GpH7-B3 variant S267_06M/GpL16-k0 (antibody, human IgG1, kappa)
heavy: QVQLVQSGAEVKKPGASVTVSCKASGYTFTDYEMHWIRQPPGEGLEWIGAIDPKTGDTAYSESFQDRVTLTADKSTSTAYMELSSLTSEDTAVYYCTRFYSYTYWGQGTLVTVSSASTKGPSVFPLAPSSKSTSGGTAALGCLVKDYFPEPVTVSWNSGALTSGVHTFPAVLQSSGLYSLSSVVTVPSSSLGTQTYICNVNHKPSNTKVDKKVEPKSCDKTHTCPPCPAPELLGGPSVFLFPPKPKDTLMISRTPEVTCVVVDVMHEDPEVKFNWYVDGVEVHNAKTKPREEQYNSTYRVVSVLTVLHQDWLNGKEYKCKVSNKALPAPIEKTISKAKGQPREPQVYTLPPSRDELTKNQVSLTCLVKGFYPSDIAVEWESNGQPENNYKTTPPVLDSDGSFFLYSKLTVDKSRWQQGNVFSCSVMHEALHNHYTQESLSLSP
light: B1 light
notes: also called Ho Ab S267_06M
B15: GpH7-B3 variant N325_13S/GpL16-k0 (antibody, human IgG1, kappa)
heavy: not shown
light: B1 light
notes: also called Ho Ab N325_13S
B16: GpH7-B3 variant S337_20W/GpL16-k0 (antibody, human IgG1, kappa)
heavy: not shown
light: B1 light
notes: also called Ho Ab S337_20W
B17: GpH7-B3 variant N325_07I/GpL16-k0 (antibody, human IgG1, kappa)
heavy: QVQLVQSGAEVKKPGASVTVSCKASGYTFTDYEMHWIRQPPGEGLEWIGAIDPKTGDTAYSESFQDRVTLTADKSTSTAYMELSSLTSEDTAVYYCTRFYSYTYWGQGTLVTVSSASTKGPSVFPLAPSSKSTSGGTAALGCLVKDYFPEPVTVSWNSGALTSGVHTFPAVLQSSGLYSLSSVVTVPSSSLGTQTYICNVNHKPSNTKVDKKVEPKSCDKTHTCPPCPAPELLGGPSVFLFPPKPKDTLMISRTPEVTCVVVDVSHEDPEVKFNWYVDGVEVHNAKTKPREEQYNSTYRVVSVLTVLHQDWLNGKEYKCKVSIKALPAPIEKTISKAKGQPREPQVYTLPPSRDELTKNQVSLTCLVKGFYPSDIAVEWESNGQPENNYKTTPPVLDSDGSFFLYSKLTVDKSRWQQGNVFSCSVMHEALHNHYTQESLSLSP
light: B1 light
notes: also called Ho Ab N325_07I
B18: GpH7-B3 variant P238_19Q/GpL16-k0 (antibody, human IgG1, kappa)
heavy: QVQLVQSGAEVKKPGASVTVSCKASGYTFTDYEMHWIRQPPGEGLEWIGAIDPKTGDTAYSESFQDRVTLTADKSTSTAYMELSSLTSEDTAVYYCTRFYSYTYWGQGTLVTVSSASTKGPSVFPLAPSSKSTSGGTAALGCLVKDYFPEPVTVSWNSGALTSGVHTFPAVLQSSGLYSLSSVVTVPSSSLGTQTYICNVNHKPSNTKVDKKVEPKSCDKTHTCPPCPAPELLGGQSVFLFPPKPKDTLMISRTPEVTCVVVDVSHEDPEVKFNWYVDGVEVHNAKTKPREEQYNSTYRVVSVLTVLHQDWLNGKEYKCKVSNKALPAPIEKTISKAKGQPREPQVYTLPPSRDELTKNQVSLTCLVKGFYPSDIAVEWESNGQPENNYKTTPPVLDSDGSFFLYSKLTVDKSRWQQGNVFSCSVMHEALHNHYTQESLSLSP
light: B1 light
notes: also called Ho Ab P238_19Q
B19: GpH7-B3 variant S267_19Q/GpL16-k0 (antibody, human IgG1, kappa)
heavy: not shown
light: B1 light
notes: also called Ho Ab S267_19Q
B20: GpH7-B3 variant Y296_20W/GpL16-k0 (antibody, human IgG1, kappa)
heavy: not shown
light: B1 light
notes: also called Ho Ab Y296_20W
B21: GpH7-B3 variant P331_15Y/GpL16-k0 (antibody, human IgG1, kappa)
heavy: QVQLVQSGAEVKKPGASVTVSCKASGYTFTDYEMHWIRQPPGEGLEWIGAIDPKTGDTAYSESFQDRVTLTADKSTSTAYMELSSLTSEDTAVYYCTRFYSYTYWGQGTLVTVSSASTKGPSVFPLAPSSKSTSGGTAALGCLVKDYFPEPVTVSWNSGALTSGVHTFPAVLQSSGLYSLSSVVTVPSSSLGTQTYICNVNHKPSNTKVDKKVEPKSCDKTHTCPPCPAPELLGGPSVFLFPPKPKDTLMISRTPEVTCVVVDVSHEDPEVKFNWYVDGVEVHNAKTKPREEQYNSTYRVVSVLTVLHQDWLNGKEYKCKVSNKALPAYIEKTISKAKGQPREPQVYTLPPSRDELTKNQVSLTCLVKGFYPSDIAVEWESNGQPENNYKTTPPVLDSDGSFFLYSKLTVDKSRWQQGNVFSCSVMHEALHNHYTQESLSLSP
light: B1 light
notes: also called Ho Ab P331_15Y
B22: GpH7-B3 variant S239_03V/GpL16-k0 (antibody, human IgG1, kappa)
heavy: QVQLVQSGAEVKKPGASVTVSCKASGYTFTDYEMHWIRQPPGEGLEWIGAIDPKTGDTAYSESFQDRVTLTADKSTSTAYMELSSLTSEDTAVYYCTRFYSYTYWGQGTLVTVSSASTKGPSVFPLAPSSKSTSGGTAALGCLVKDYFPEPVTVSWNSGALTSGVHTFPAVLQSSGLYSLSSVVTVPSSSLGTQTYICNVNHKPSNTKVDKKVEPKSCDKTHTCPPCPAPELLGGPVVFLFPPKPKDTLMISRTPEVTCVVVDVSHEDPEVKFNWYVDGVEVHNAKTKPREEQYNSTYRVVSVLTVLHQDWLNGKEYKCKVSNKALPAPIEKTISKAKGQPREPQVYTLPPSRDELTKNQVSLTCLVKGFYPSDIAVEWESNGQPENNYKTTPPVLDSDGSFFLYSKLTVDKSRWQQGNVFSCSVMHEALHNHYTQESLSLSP
light: B1 light
notes: also called Ho Ab S239_03V
B23: GpH7-B3 variant N325_09D/GpL16-k0 (antibody, human IgG1, kappa)
heavy: not shown
light: B1 light
notes: also called Ho Ab N325_09D
B24: GpH7-A5/GpH7-B3 variant G237_04F/GpL16-k0 (antibody, human IgG1, kappa)
heavy 1: not shown
heavy 2: not shown
light: B1 light
notes: also called He Ab G237_04F
B25: GpH7-B3 variant P238_10E/GpL16-k0 (antibody, human IgG1, kappa)
heavy: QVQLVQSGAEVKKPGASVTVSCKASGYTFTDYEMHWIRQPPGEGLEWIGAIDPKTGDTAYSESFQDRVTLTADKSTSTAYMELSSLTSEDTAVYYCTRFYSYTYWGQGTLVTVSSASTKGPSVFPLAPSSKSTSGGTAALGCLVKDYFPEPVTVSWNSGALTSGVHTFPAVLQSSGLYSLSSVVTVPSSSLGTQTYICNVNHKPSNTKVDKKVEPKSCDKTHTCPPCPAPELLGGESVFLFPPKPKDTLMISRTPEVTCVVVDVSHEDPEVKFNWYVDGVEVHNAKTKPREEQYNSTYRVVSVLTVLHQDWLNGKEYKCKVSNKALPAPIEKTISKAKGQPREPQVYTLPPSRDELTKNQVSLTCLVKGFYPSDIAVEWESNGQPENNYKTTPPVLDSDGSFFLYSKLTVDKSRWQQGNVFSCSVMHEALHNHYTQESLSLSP
light: B1 light
notes: also called Ho Ab P238_10E
B26: GpH7-B3 variant V266_06M/GpL16-k0 (antibody, human IgG1, kappa)
heavy: not shown
light: B1 light
notes: also called Ho Ab V266_06M
B27: GpH7-B3 variant T335_20W/GpL16-k0 (antibody, human IgG1, kappa)
heavy: not shown
light: B1 light
notes: also called Ho Ab T335_20W
B28: GpH7-B3 variant T335_07I/GpL16-k0 (antibody, human IgG1, kappa)
heavy: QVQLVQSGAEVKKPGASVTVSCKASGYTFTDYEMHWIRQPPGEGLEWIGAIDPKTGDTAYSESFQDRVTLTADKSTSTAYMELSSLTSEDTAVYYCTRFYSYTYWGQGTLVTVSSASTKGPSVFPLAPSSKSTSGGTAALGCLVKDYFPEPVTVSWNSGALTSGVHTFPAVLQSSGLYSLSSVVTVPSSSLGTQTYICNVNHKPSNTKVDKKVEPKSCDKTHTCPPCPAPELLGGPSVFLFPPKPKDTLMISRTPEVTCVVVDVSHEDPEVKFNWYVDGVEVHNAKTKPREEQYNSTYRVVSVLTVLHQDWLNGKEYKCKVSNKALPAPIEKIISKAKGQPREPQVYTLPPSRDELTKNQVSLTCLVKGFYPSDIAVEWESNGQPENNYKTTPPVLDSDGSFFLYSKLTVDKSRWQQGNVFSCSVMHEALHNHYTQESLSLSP
light: B1 light
notes: also called Ho Ab T335_07I

Target: T1, FcγRIIb extracellular domain with …
Experiment: SPR (Biacore), relative binding
Procedure: Analysis of interaction between objective antibody and the FcγR was carried out using Biacore T100 (GE Healthcare). HBS-EP+ (GE Healthcare) was used as the running buffer, and the measurement temperature was set to 25° C. Chips produced by immobilizing the antigen peptide by the amine coupling method to a Series S Sencor Chip CM5 (GE Healthcare), or alternatively, chips produced by allowing preliminarily biotinylated antigen peptides to interact with and immobilize onto a Series S Sensor Chip SA (certified) (GE Healthcare) were used. Antibodies of interest were captured onto an antigen peptide-immobilized chip, and allowed to interact to each FcγR diluted with running buffer. To regenerate and repeatedly use the chip, the antibodies captured on the chip were washed off by reacting 10 mM glycine-HCl, pH 1.5.

Row | Ho/Con_2b | He/Con_2b | Binder
1 | 106 % of HoCon Ab GpH7-B3/GpL16-k0 | – | B1
2 | – | 113 % of HeCon Ab GpH7-A5/GpH7-B3/GpL16-k0 | B2
3 | 96.1 % of HoCon Ab GpH7-B3/GpL16-k0 | – | B3
4 | 12.6 % of HoCon Ab GpH7-B3/GpL16-k0 | – | B4
5 | 100 % of HoCon Ab GpH7-B3/GpL16-k0 | – | B5
6 | – | 127 % of HeCon Ab GpH7-A5/GpH7-B3/GpL16-k0 | B6
7 | 96.6 % of HoCon Ab GpH7-B3/GpL16-k0 | – | B7
8 | 98 % of HoCon Ab GpH7-B3/GpL16-k0 | – | B8
9 | – | 137 % of HeCon Ab GpH7-A5/GpH7-B3/GpL16-k0 | B9
10 | 18.8 % of HoCon Ab GpH7-B3/GpL16-k0 | – | B10
11 | 108 % of HoCon Ab GpH7-B3/GpL16-k0 | – | B11
12 | 96.6 % of HoCon Ab GpH7-B3/GpL16-k0 | – | B12
13 | 90.7 % of HoCon Ab GpH7-B3/GpL16-k0 | – | B13
14 | 187 % of HoCon Ab GpH7-B3/GpL16-k0 | – | B14
15 | 159 % of HoCon Ab GpH7-B3/GpL16-k0 | – | B15
16 | 99.6 % of HoCon Ab GpH7-B3/GpL16-k0 | – | B16
17 | 88.2 % of HoCon Ab GpH7-B3/GpL16-k0 | – | B17
18 | 42.7 % of HoCon Ab GpH7-B3/GpL16-k0 | – | B18
19 | 185 % of HoCon Ab GpH7-B3/GpL16-k0 | – | B19
20 | 103 % of HoCon Ab GpH7-B3/GpL16-k0 | – | B20
21 | 111 % of HoCon Ab GpH7-B3/GpL16-k0 | – | B21
22 | 108 % of HoCon Ab GpH7-B3/GpL16-k0 | – | B22
23 | 77 % of HoCon Ab GpH7-B3/GpL16-k0 | – | B23
24 | – | 149 % of HeCon Ab GpH7-A5/GpH7-B3/GpL16-k0 | B24
25 | 97.9 % of HoCon Ab GpH7-B3/GpL16-k0 | – | B25
26 | 231 % of HoCon Ab GpH7-B3/GpL16-k0 | – | B26
27 | 94.4 % of HoCon Ab GpH7-B3/GpL16-k0 | – | B27
28 | 104 % of HoCon Ab GpH7-B3/GpL16-k0 | – | B28
